What follows are sequences tested on Escherichia coli TOP10 (assay: shrunken log2 fold change of peptide-encoding DNA abundance (4.5 h post-induction vs induction); higher = less antimicrobial activity (less host growth inhibition)). Details: time post-induction: 4.5 h; library: site-saturation at positions 5, 18, 19, 20.
With RRIRLRPPRLPRPRPRPPPFPRP the “shrunken log2 fold change” value was 0.791. In the case of RRIRVRPPRLPRPRPRPSPQPRP, the “shrunken log2 fold change” value is reported as 0.0525. In the case of RRIRTRPPRLPRPRPRPTNFPRP, the “shrunken log2 fold change” value is reported as -0.0921. With RRIRLRPPRLPRPRPRPHLAPRP the “shrunken log2 fold change” value was 0.053. RRIRTRPPRLPRPRPRPAYYPRP was tested, and the “shrunken log2 fold change” value was 0.0141. In the case of RRIRRRPPRLPRPRPRPIWNPRP, the “shrunken log2 fold change” value is reported as 0.0946. With RRIRIRPPRLPRPRPRPFQAPRP the “shrunken log2 fold change” value was -0.0938. With RRIRERPPRLPRPRPRPVPKPRP the “shrunken log2 fold change” value was 0.358. In the case of RRIRPRPPRLPRPRPRPWHHPRP, the “shrunken log2 fold change” value is reported as -0.209. With RRIRNRPPRLPRPRPRPTMLPRP the “shrunken log2 fold change” value was -0.241. RRIRWRPPRLPRPRPRPSKGPRP was tested, and the “shrunken log2 fold change” value was 0.0944. In the case of RRIRRRPPRLPRPRPRPRPFPRP, the “shrunken log2 fold change” value is reported as 0.699. In the case of RRIRNRPPRLPRPRPRPRDPPRP, the “shrunken log2 fold change” value is reported as 0.457. In the case of RRIRGRPPRLPRPRPRPVPMPRP, the “shrunken log2 fold change” value is reported as 1.17. RRIRMRPPRLPRPRPRPPNPPRP was tested, and the “shrunken log2 fold change” value was 0.822. In the case of RRIRCRPPRLPRPRPRPGYDPRP, the “shrunken log2 fold change” value is reported as -0.167. For RRIRTRPPRLPRPRPRPAMYPRP, the “shrunken log2 fold change” value was -0.106. In the case of RRIRIRPPRLPRPRPRPMDTPRP, the “shrunken log2 fold change” value is reported as 0.0627. With RRIRVRPPRLPRPRPRPMPVPRP the “shrunken log2 fold change” value was 0.00602. RRIRLRPPRLPRPRPRPASHPRP was tested, and the “shrunken log2 fold change” value was 0.0961. For RRIRARPPRLPRPRPRPMGFPRP, the “shrunken log2 fold change” value was -0.154. For RRIRARPPRLPRPRPRPGDNPRP, the “shrunken log2 fold change” value was 0.133. In the case of RRIRGRPPRLPRPRPRPLFDPRP, the “shrunken log2 fold change” value is reported as 0.548. RRIRLRPPRLPRPRPRPACRPRP was tested, and the “shrunken log2 fold change” value was 0.227. In the case of RRIRLRPPRLPRPRPRPAATPRP, the “shrunken log2 fold change” value is reported as 0.379. With RRIRGRPPRLPRPRPRPCINPRP the “shrunken log2 fold change” value was 0.573. With RRIRKRPPRLPRPRPRPTSGPRP the “shrunken log2 fold change” value was -0.064. In the case of RRIRWRPPRLPRPRPRPKEQPRP, the “shrunken log2 fold change” value is reported as 0.0237. In the case of RRIRERPPRLPRPRPRPYFSPRP, the “shrunken log2 fold change” value is reported as -0.247. In the case of RRIRNRPPRLPRPRPRPPAEPRP, the “shrunken log2 fold change” value is reported as 0.256. In the case of RRIRERPPRLPRPRPRPQPLPRP, the “shrunken log2 fold change” value is reported as -0.202. With RRIRNRPPRLPRPRPRPNWDPRP the “shrunken log2 fold change” value was -0.163. In the case of RRIRYRPPRLPRPRPRPVIFPRP, the “shrunken log2 fold change” value is reported as -0.331. For RRIRARPPRLPRPRPRPDCIPRP, the “shrunken log2 fold change” value was 0.446. RRIRRRPPRLPRPRPRPRKLPRP was tested, and the “shrunken log2 fold change” value was 0.253. RRIRNRPPRLPRPRPRPPYRPRP was tested, and the “shrunken log2 fold change” value was -0.11. With RRIRKRPPRLPRPRPRPGICPRP the “shrunken log2 fold change” value was 0.0428. For RRIRQRPPRLPRPRPRPDNIPRP, the “shrunken log2 fold change” value was -0.00584. For RRIRYRPPRLPRPRPRPEAPPRP, the “shrunken log2 fold change” value was -0.0405. In the case of RRIRYRPPRLPRPRPRPYWRPRP, the “shrunken log2 fold change” value is reported as 0.0608. With RRIRRRPPRLPRPRPRPDVHPRP the “shrunken log2 fold change” value was -0.101. With RRIRGRPPRLPRPRPRPALGPRP the “shrunken log2 fold change” value was 1.11. RRIRARPPRLPRPRPRPYCVPRP was tested, and the “shrunken log2 fold change” value was 0.118. With RRIRMRPPRLPRPRPRPKWQPRP the “shrunken log2 fold change” value was -0.0255. With RRIRRRPPRLPRPRPRPQRHPRP the “shrunken log2 fold change” value was -0.0855. For RRIRYRPPRLPRPRPRPYMPPRP, the “shrunken log2 fold change” value was -0.00804. With RRIRKRPPRLPRPRPRPNALPRP the “shrunken log2 fold change” value was 0.301. With RRIRDRPPRLPRPRPRPKINPRP the “shrunken log2 fold change” value was -0.389. For RRIRCRPPRLPRPRPRPKCVPRP, the “shrunken log2 fold change” value was -0.0957. With RRIRSRPPRLPRPRPRPHMQPRP the “shrunken log2 fold change” value was -0.264. With RRIRRRPPRLPRPRPRPYQHPRP the “shrunken log2 fold change” value was -0.983. For RRIRDRPPRLPRPRPRPFMMPRP, the “shrunken log2 fold change” value was -0.265. In the case of RRIRTRPPRLPRPRPRPCADPRP, the “shrunken log2 fold change” value is reported as -0.0062. In the case of RRIRIRPPRLPRPRPRPSYQPRP, the “shrunken log2 fold change” value is reported as -1.32. In the case of RRIRHRPPRLPRPRPRPKKAPRP, the “shrunken log2 fold change” value is reported as 0.0601. For RRIRMRPPRLPRPRPRPHHKPRP, the “shrunken log2 fold change” value was -0.316. RRIRKRPPRLPRPRPRPFSLPRP was tested, and the “shrunken log2 fold change” value was -0.189. RRIRDRPPRLPRPRPRPTPPPRP was tested, and the “shrunken log2 fold change” value was 0.49. For RRIRDRPPRLPRPRPRPRDMPRP, the “shrunken log2 fold change” value was -0.0954. For RRIRARPPRLPRPRPRPFLRPRP, the “shrunken log2 fold change” value was 0.0973. For RRIRYRPPRLPRPRPRPLNGPRP, the “shrunken log2 fold change” value was -0.159. For RRIRQRPPRLPRPRPRPIPMPRP, the “shrunken log2 fold change” value was -0.639. With RRIRPRPPRLPRPRPRPKGRPRP the “shrunken log2 fold change” value was -0.086. With RRIRWRPPRLPRPRPRPGFLPRP the “shrunken log2 fold change” value was 0.144. RRIRYRPPRLPRPRPRPLCQPRP was tested, and the “shrunken log2 fold change” value was -0.648. RRIRLRPPRLPRPRPRPIGTPRP was tested, and the “shrunken log2 fold change” value was -0.0773. In the case of RRIRMRPPRLPRPRPRPGATPRP, the “shrunken log2 fold change” value is reported as 1.38. In the case of RRIRPRPPRLPRPRPRPQRTPRP, the “shrunken log2 fold change” value is reported as 0.113. For RRIRYRPPRLPRPRPRPHGMPRP, the “shrunken log2 fold change” value was -0.922. With RRIRFRPPRLPRPRPRPLWDPRP the “shrunken log2 fold change” value was -0.119. With RRIRQRPPRLPRPRPRPISHPRP the “shrunken log2 fold change” value was -0.421. With RRIRFRPPRLPRPRPRPKCFPRP the “shrunken log2 fold change” value was -0.108. For RRIRDRPPRLPRPRPRPNSIPRP, the “shrunken log2 fold change” value was -0.211. In the case of RRIRQRPPRLPRPRPRPCWNPRP, the “shrunken log2 fold change” value is reported as -0.13. With RRIRARPPRLPRPRPRPCWCPRP the “shrunken log2 fold change” value was 0.721.
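Also: peptides expressed intracellularly from a pBAD plasmid library in pooled LB shake-flask culture, induced with 0.3% L-arabinose, DNA abundance read by NGS, three biological replicates, DESeq2 with apeglm shrinkage.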
